# From patent EP4596582A1
# Assays:
# [1] = molecular target: human B7-H3-4Ig-His protein (human) (UniProt Q5ZPR3); experiment: ELISA, antigen coated at 1 ug/ml
# [2] = molecular target: human B7-H3-4Ig-His protein (human) (UniProt Q5ZPR3); experiment: ELISA, antigen coated at 1 ug/ml (specificity panel)
# [3] = molecular target: human B7-H3-4Ig-His protein (human) (UniProt Q5ZPR3); experiment: ELISA, antigen coated at 1 ug/ml; remark: listed apart in the source
# [4] = molecular target: monkey B7-H3-4Ig-His protein (monkey); experiment: ELISA, antigen coated at 1 ug/ml
# [5] = molecular target: human B7-H3 on human tumor cells (MCF-7, HT29, NCI-N87, HCC1806, HCC827) (human) (UniProt Q5ZPR3); experiment: cell-based or functional assay
# Sequence of human B7-H3 on human tumor cells (MCF-7, HT29, NCI-N87, HCC1806, HCC827) (human) (Q5ZPR3 29-534): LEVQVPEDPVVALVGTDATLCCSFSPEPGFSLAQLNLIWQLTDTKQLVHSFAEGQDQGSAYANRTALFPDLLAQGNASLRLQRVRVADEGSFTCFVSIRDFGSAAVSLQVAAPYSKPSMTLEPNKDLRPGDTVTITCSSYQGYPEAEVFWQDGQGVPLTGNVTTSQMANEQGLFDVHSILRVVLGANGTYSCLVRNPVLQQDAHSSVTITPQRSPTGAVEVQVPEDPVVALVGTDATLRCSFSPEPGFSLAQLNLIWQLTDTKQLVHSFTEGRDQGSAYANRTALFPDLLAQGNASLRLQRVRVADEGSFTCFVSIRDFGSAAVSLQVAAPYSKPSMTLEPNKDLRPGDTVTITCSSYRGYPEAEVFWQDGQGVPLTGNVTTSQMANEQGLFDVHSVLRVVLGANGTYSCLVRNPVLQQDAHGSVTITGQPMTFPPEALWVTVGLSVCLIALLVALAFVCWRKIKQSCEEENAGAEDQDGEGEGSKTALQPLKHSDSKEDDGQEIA
# [6] = molecular target: human B7-H3-4Ig on CHO-S cells (CHO-S-human B7-H3-4Ig) (human) (UniProt Q5ZPR3); experiment: cell-based or functional assay
# Sequence of human B7-H3-4Ig on CHO-S cells (CHO-S-human B7-H3-4Ig) (human) (Q5ZPR3 29-534): as above
# Sequence of human B7-H3-4Ig-His protein (human) (Q5ZPR3 other isoform, or with tags, fused parts or gaps): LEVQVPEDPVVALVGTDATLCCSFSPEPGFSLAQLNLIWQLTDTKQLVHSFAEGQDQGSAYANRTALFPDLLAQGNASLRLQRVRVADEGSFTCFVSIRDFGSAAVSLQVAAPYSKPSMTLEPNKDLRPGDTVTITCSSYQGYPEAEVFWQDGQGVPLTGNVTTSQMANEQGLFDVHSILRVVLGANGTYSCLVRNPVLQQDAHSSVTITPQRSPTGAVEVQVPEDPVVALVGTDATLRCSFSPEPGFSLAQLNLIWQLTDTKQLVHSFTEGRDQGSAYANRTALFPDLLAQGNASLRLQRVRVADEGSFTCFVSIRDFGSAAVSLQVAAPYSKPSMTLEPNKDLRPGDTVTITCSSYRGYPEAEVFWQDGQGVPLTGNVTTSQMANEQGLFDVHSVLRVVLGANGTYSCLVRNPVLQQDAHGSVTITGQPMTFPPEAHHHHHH
binder,measurement,setting,value
"control B7-H3 antibody DS7300 (antibody, INN chains, looked up, V domains shown) VH: QVQLVQSGAEVKKPGSSVKVSCKASGYTFTNYVMHWVRQAPGQGLEWMGYINPYNDDVKYNEKFKGRVTITADESTSTAYMELSSLRSEDTAVYYCARWGYYGSPLYYFDYWGQGTLVTVSS VL: EIVLTQSPATLSLSPGERATLSCRASSRLIYMHWYQQKPGQAPRPLIYATSNLASGIPARFSGSGSGTDFTLTISSLEPEDFAVYYCQQWNSNPPTFGQGTKVEIK",EC50,[1],0.00336 µg/mL
same,EC50,[2],0.00336 µg/mL
same,EC50,[3],0.0138 µg/mL
same,EC50,[4],0.0237 µg/mL
same,"Endocytosis EC50 on HCC827 cells (PHrodo, flow cytometry)",[5],0.0152 µg/mL
same,"Endocytosis EC50 on HCC1806 cells (PHrodo, flow cytometry)",[5],0.0572 µg/mL
same,"Endocytosis EC50 on NCI-N87 cells (PHrodo, flow cytometry)",[5],0.0241 µg/mL
same,ADCC: EC50 of luciferase signal of Jurkat-NFAT/Luciferase-CD16A effector cells with CHO-S-human B7-H3-4Ig target cells,[6],0.108 µg/mL
